Experimental findings from patent publication US20250215083A1 (JIANGSU HENGRUI PHARMACEUTICALS, published 2025) are described below.

Where two headings read alike, the source gives them in different places.

The target of test [1] is T1, human GPRC5D (human, UniProt Q9NZD1 1-345).
T1 construct: whole, on cells; also called membrane surface GPRC5D
Nature of the test: FACS, MM.1R cells. Here is the method: (§1) To test the capacity of the GPRC5D/CD3 bispecific antibodies of the present disclosure to bind to GPRC5D, a flow cytometry assay was used in this test example to measure the capacity of the GPRC5D/CD3 bispecific antibodies to bind to the human multiple myeloma cell line MM.1R (ATCC® CRL-2975), which expresses GPRC5D, and to a stably transfected cell strain CHOK1-cynoGPRC5D, which expresses cynomolgus monkey GPRC5D. The specific procedure was as follows: The cells described above were cultured in complete culture medium containing 10% FBS, incubated in a 37° C., 5% CO₂ incubator for 2 days, and added to a cell plate at 1×10⁵ cells/well. The plate was centrifuged at 300 g for 5 min and washed once with 1% BSA. The antibodies were serially diluted to 8 concentrations and added to the cell plate at 100 μL/well. The plate was incubated at 4° C. for 1 h and washed once with 1% BSA. […] The plate was washed three times with 1% BSA, PBS was added at 100 μL/well, and plate reading was performed.
(In general: A flow cytometer gives signals particle by particle.)

Test [2] deals with T1, human GPRC5D. Nature of the test: FACS, MM.1R cells. The protocol: as §1
This is another data set of the same source.

Test [3] has as its target T2, cynomolgus monkey GPRC5D (cynomolgus monkey).
T2 construct: whole, on cells; also called CynoGPRC5D; cynoGPRC5D
Nature of the test: FACS, CHOK1-cynoGPRC5D cells. Here is the method:
as §1

Test [4] addresses T2, cynomolgus monkey GPRC5D. Nature of the test: FACS, CHOK1-cynoGPRC5D cells. The protocol: as §1
The source holds these as a separate data set.

T1 sequence (Q9NZD1 whole entry): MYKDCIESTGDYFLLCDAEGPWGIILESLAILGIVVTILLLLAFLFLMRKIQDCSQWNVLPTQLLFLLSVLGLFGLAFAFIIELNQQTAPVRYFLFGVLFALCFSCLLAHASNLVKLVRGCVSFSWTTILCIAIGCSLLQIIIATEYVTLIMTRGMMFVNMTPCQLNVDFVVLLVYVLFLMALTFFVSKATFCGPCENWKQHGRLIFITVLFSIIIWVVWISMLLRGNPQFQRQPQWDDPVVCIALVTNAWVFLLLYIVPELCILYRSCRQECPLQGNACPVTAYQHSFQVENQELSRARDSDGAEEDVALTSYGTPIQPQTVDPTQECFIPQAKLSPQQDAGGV

B1: F4-4 (bispecific antibody)
heavy 1: not shown
light 1: not shown
heavy 2: EVQLVESGGGLVQPGGSLRLSCAASGFTFTDYYLSWVKQAPGKGLEWVAFIRNRAKGYTTEYSASVKGRFTISRDNSKNSLYLQMNSLRAEDTAVYYCARMGGKGWHFDVWGQGTTVTVSSASTKGPSVFPLAPSSKSTSGGTAALGCLVKDYFPEPVTVSWNSGALTSGVHTFPAVLQSSGLYSLSSVVTVPSSSLGTQTYICNVNHKPSNTKVDKKVEPKSCDKTHTCPPCPAPEAAGGPSVFLFPPKPKDTLMISRTPEVTCVVVDVSHEDPEVKFNWYVDGVEVHNAKTKPREEQYNSTYRVVSVLTVLHQDWLNGKEYKCKVSNKALPAPIEKTISKAKGQPREPQVCTLPPSRDELTKNQVSLSCAVKGFYPSDIAVEWESNGQPENNYKTTPPVLDSDGSFFLVSKLTVDKSRWQQGNVFSCSVMHEALHNHYTQKSLSLSPGK
light 2: DVVMTQSPLSLPVTPGEPASISCRSSQSIVHSNRNTYLEWYLQKPGQSPKLLIYKVSNRFSGVPDRFFGSGSGTDFTLKINRVEAEDVGVYYCFQGSHVPFTFGGGTKVEIKRTVAAPSVFIFPPSDEQLKSGTASVVCLLNNFYPREAKVQWKVDNALQSGNSQESVTEQDSKDSTYSLSSTLTLSKADYEKHKVYACEVTHQGLSSPVTKSFNRGEC
notes: formula 4
As a reminder, the EC50 is the concentration at which the effect is half-maximal. As to B1, the EC50 was 12.1 nM in test [1], 12.1 nM in test [2], 3.15 nM in test [3] and 3.15 nM in test [4]. Further, the Max is 13600 in test [1] and 74900 in test [3].

B2: F11-13 (bispecific antibody)
heavy: not shown
light: DIQMTQSPSSVSASVGDRVTITCKASQNVGSNVAWYQQKPGKAPKALIYSASYRYSGVPSRFSGSGSGTDFTLTISSLQPEDFATYYCHQYNSYPPTFGQGTKLEIKRTVAAPSVFIFPPSDEQLKSGTASVVCLLNNFYPREAKVQWKVDNALQSGNSQESVTEQDSKDSTYSLSSTLTLSKADYEKHKVYACEVTHQGLSSPVTKSFNRGEC
notes: formula 11
As for B2, the EC50 in test [1] is 1.05 nM; in test [2], 1.05 nM; in test [3] it was 2.21 nM; in test [4], 2.21 nM. Also, the Max in test [1] was 718; in test [3] it was 28100.

B3: F11-16 (bispecific antibody)
heavy: not shown
light: DIQMTQSPSSVSASVGDRVTITCKASQNVGSNVAWYQQKPGKSPKALIYSASYRYSGVPSRFSGSGSGTDFTLTISSLQPEDFAEYYCHQYNSYPPTFGQGTKLEIKRTVAAPSVFIFPPSDEQLKSGTASVVCLLNNFYPREAKVQWKVDNALQSGNSQESVTEQDSKDSTYSLSSTLTLSKADYEKHKVYACEVTHQGLSSPVTKSFNRGEC
notes: formula 11
As for B3, the EC50 in test [1] worked out at 0.94 nM; in test [2], 0.94 nM; in test [3], 2.95 nM; in test [4], 2.95 nM. In addition, the Max in test [1] stood at 678; in test [3] it was 25200.

B4: F11-14 (bispecific antibody)
heavy: not shown
light: DIQMTQSPSSVSASVGDRVTITCKASQNVGSNVAWYQQKPGKAPKALIYSASYRYSGVPSRFSGSGSGTDFTLTISSLQPEDFATYYCHQYNSYPPTFGQGTKLEIKRTVAAPSVFIFPPSDEQLKSGTASVVCLLNNFYPREAKVQWKVDNALQSGNSQESVTEQDSKDSTYSLSSTLTLSKADYEKHKVYACEVTHQGLSSPVTKSFNRGEC
notes: formula 11
On to B4, for which the EC50 is 0.88 nM in test [1], 0.88 nM in test [2], 1.86 nM in test [3] and 1.86 nM in test [4]. The Max in test [1] came out at 633; in test [3] it was 25800.

B5: F11-15 (bispecific antibody)
heavy: not shown
light: DIQMTQSPSSVSASVGDRVTITCKASQNVGSNVAWYQQKPGKSPKALIYSASYRYSGVPSRFSGSGSGTDFTLTISSLQPEDFAEYYCHQYNSYPPTFGQGTKLEIKRTVAAPSVFIFPPSDEQLKSGTASVVCLLNNFYPREAKVQWKVDNALQSGNSQESVTEQDSKDSTYSLSSTLTLSKADYEKHKVYACEVTHQGLSSPVTKSFNRGEC
notes: formula 11
On to B5, for which the EC50 in test [1] worked out at 0.89 nM; in test [2] it was 0.89 nM; in test [3], 1.45 nM; in test [4], 1.45 nM. The Max came out at 693 in test [1] and 24000 in test [3].
